The values that follow come from article PMC6891087 (2019).

The test has as its target unmodified nucleosome core particle (human | Xenopus laevis, UniProt P04908 1-130; P06899 1-126). As to the kind of experiment: SPR. (In SPR one partner is held on a chip, and binding of the other changes the refractive index at the surface.)

B1: CPC_LM containing the Survivin BIR mutant K62/E65/H80A (complex)
chain 1: MAPRKGSSRVAKTNSLRRRKLASFLKDFDREVEIRIKQIESDRQNLLKEVDNLYNIEILRLPKALREMNWLDYFALGGNKQALEEAATADLDITEINKLTAEAIQTPLKSAKTRKVIQVDEMIVEEEEEEENERKNLQTARVKRCPPSKKRTQSIQGKGKGKRSSRANTVTPAVGRLEVSMVKPTPGLTPRFDSRVFKTPGLRTPAAGERIYNISGNGSPLADSKEIFLTVPVGGGESLRLLASDLQRHSIAQLDPEALGNIKKLSNRLAQICSSIRTHK
chain 2: MGAPTLPPAWQPFLKDHRISTFKNWPFLEGCACTPERMAEAGFIHCPTENEPDLAQCFFCFAELAGWEPDDDPIEEHKKASSGCAFLSVKKQFEELTLGEFLKLDRERAKNKIAKETNNKKKEFEETAKKVRRAIEQLAAMD
chain 3: MGTTAPGPIHLLELCDQKLMEFLCNMDNKDLVWLEEIQEEAERMFTREFSKEPELMPK
For orientation: Kd means the free concentration of one partner at which half of the binding sites on the other are occupied at equilibrium, for simple one-to-one binding. Higher therefore signals weaker binding. Molecule B1 had a Kd of 309 nM.
